In patent US20120301473A1 (NORTHWESTERN UNIVERSITY, published 2012):

Experiments:
[1] = target: T1, recombinant human Aβ42 (rPeptide) (human, UniProt P05067 672-713); assay: dot blot
T1 construct: domain: Aβ42; Tested in the monomeric (unaggregated), oligomeric and filamentous states; also called Aβ Olig; Aβ Fil
Procedure: (§1) 45 ng/spot was applied to the nitrocellulose. Total Tau was determined using Tau12. […] Each point represents a minimum of three independent measurements. […] Scale bar is 200 nm. […] Monomeric and dimeric Tau were isolated from the same aggregation reaction. Also included is an electroeluted monomeric sample that was never exposed to AA (−AA). 12 ng/spot was applied to the nitrocellulose.
(§2) For dot blots, samples were spotted directly onto nitrocellulose membranes (44). Both Western and dot blot membranes were blocked with 5% nonfat dry milk in TBS, pH 7.4, and incubated in primary antibodies overnight at 4° C. For dot blots, 0.05% Triton X-100 was added to the TBS solution. The Tau12 (45), TauS (46), Tau7 (47), MOAB-2 (a mouse monoclonal antibody (IgG1) produced in the Binder laboratory what recognizes Aβ40 and −42), and TOC1 mouse monoclonal antibodies were used at 0.0067, 0.01, 0.04, 0.05, and 0.1 μg/ml, respectively. The mouse monoclonal anti-α-synuclein (Chemicon; MAB5320) and rabbit monoclonal anti-β-actin (Cell Signaling Technology; clone 13E5) antibodies were diluted to 1:2000 and 1:1000, respectively. The rabbit polyclonal antibodies R1 (48) and His-probe (Santa Cruz Biotechnology; clone H-15) were used at 0.0075 and 0.5 μg/ml, respectively. […]

[2] = target: untagged recombinant full-length human α-synuclein (human, UniProt P37840 1-140); assay: dot blot
Procedure: as §1, §2

[3] = target: T2, Tau oligomers (hTau40 aggregates <50 nm in length; sucrose gradient Fraction 3) (human, UniProt P10636 1-758); assay: immunogold EM, normalised to poly-His tag labeling of the same preparation
T2 construct: Prefibrillar aggregates of recombinant poly-His tagged hTau40 made with arachidonic acid; The number of chains is not defined; also called oligomeric structures; oligomer fraction
T2 sequence (P10636 other isoform, or with tags, fused parts or gaps limits assumed): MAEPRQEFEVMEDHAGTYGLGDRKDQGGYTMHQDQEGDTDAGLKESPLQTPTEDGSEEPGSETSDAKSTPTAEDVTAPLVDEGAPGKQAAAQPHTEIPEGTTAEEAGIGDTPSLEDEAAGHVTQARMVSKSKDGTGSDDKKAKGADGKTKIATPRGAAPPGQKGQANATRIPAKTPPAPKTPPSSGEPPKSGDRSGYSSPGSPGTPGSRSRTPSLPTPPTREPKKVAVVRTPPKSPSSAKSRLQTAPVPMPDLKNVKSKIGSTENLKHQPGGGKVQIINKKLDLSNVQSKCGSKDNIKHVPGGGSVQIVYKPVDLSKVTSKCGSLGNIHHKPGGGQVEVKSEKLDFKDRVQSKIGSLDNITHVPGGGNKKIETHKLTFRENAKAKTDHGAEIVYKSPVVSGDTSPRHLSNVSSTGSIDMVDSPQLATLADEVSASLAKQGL

[4] = target: T3, Tau MTBR construct consisting of residues 244-372 of hTau40 (human, UniProt P10636 561-689); assay: dot blot of AA-assembled construct
T3 construct: Expressed in E. coli from pET-17b; Assembled with AA before the dot blot; not shown: poly-His tag C-terminal to residue 372
T3 sequence (P10636 other isoform, or with tags, fused parts or gaps): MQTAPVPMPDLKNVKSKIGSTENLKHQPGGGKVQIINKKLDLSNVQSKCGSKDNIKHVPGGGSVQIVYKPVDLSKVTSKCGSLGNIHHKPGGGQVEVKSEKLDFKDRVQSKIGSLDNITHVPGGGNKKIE

[5] = target: tau deletion construct Δ209-228 (hTau40), aggregated (human, UniProt P10636 1-758); assay: aggregated deletion construct incubated with the antibody
Chain of tau deletion construct Δ209-228 (hTau40), aggregated (P10636 other isoform, or with tags, fused parts or gaps mutant): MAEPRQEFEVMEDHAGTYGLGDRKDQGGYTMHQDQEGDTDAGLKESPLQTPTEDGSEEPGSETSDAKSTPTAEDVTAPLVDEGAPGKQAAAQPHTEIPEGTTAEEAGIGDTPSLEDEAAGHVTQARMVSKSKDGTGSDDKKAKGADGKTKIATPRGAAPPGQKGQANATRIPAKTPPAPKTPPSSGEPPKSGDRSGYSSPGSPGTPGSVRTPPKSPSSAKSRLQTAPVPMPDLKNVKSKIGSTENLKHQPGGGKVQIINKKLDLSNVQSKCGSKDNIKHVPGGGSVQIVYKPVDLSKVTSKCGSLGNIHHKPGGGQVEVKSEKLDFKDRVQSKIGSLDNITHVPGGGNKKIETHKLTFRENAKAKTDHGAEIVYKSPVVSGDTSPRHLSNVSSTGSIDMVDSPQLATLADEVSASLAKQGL
Procedure: (§3) Two overlapping tau deletion constructs (Δ209-228 and Δ221-238) were aggregated and incubated with the TOC1 antibody or with the Tau7 antibody. Both were positive for Tau7 which recognizes the last 11 amino acids of tau, but negative for TOC1.

[6] = target: tau deletion construct Δ221-238 (hTau40), aggregated (human, UniProt P10636 1-758); assay: as above
Chain of tau deletion construct Δ221-238 (hTau40), aggregated (P10636 other isoform, or with tags, fused parts or gaps mutant): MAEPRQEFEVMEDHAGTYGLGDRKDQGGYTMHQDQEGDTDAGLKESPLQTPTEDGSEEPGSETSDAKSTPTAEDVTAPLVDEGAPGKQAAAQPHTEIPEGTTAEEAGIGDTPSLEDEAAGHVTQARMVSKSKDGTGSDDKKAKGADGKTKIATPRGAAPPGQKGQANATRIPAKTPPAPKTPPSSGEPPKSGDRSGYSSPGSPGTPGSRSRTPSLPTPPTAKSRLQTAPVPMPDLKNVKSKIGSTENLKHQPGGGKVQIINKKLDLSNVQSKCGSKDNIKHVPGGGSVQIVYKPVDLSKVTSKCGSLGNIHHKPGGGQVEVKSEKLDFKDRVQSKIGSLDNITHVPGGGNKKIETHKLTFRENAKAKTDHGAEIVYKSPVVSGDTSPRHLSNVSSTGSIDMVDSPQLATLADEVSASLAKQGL
Procedure: as §3

T1 sequence (P05067 672-713 limits assumed): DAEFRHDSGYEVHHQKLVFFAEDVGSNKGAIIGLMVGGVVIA

B1: Tau oligomeric complex-1 (TOC1) monoclonal antibody (antibody)
heavy: QVQLQQPGAELVMPGASVKLSCKASGYTFTSYWMHWVKQRPGQGLEWIGEIDPSDSYTNYNQKFKGKSTLTVDKSSSTAYMQLSSLTSEDSAVYYCARSGDGSSPWYFDVWGTGTTVTVSSESQSFPNVFPLVSCESPLSDKNLVAMGCLARDFLPSTISFTWNYQNNTEVIQGIRTFPTLRTGGKYLATSQVLLSPKSILEGSDEYLVCKIHYGGKNKDLHVPIPAVAEMNPNVNVFVPPRDGFSGPAPRKSKLICEATNFTPKPITVSWLKDGKLVESGFTTDPVTIENKGSTPQTYKVISTLTISEIDWLNLNVYTCRVDHRGLTFLKNVSSTCAASPSTDILTFTIPPSFADIFLSKSANLTCLVSNLATYETLNISWASQSGEPLETKIKIMESHPNGTFSAKGVASVCVEDWNNRKEFVCTVTHRDLPSPQKKFISKPNEVHKHPPAVYLLPPAREQLNLRESATVTCLVKGFSPADISVQWLQRGQLLPQEKYVTSAPMPEPGAPGFYFTHSILTVTEEEWNSGETYTCVVGHEALPHLVTERTVDKSTGKPTLYNVSLIMSDTGGTCY
light: DVLMTQTPLSLPVSLGDQASISCRSSQSIVHSNGNTYLEWYLQKPGQSPKLLIYKVSNRFSGVPDRFSGSGSGTDFTLKISRVEAEDLGVYYCFQGSHVPRTFGGGTKLEIKRADAAPTVSIFPPSSEQLTSGGASVVCFLNNFYPKDINVKWKIDGSERQNGVLNSWTDQDSKDSTYSMSSTLTLTKDEYERHNSYTCEATHKTSTSPIVKSFNRNEC
notes: Mouse monoclonal of the IgM isotype, purified from hybridoma culture; Raised in Tau null mice against electroeluted B4M cross-linked Tau dimers and boosted with cross-linked oligomers; The light chain protein print marks the leader with a dash; For the heavy chain only the DNA print does (57 nt)
binding result [1]: no binding
binding result [2]: no binding
fold preference of immunogold labeling, oligomers over filaments (TOC1:His tag labeling) [3]: > 7 fold
binding result [4]: no binding
binding result [5]: no binding
binding result [6]: no binding
